A short description of data set [1]: Methanol formation by GC, summary statement for lignin and lignin-derived compounds. It is filed as biochemical. The note with it: lignin and lignin-derived compounds 10 g/L, enzyme 0.5 g/L. How it is done:
(§1) Model compounds syringic acid, syringol, 1,3-dimethoxybenzene and 3,5-dimethoxybenzoic acid (12 mM) were incubated with PPO7 from Example 2 (2% loading (w/w)) in 50 mM BisTris buffer pH 6.5 with 10 μM CuSO4. For syringic acid and syringol PPO2 from Example 2 was included as a control. Lignin and lignin-derived compounds (10 g/L) were incubated with PPO7 from Example 2 (0.5 g/L, 5% loading (w/w)). PPO2 from Example 2 was included as a control and incubated using the same conditions. Blanks prepared without the addition of enzyme were included. Incubations were performed in GC headspace vials with a total of 1 mL reaction volume at 25° C. for approximately 48 h while shaking. The reaction was stopped by adding 28 μL 1M HCl to lower the pH to ˜3. Samples were analyzed by GC for methanol formation. A calibration range of 0.23 to 11.5 mM methanol in buffer with HCl was included.

The nature of data set [2]: Catechol oxidase activity assay: initial rate of 3-methoxycatechol oxidation at 400 nm (pH, copper and temperature optima). It counts as biochemical. The procedure:
PPO activity was determined by measuring the initial rate of 3-methoxycatechol oxidation at 400 nm (extinction coefficient used: ε 1200 M^−1cm^−1). One unit of activity is defined as the amount of PPO activity that oxidizes 1 μmol of 3-methoxycatechol to quinone per minute. Substrate was used at a concentration of 4 mM.
The pH optima were determined by measuring the initial rate of 3-methoxycatechol oxidation with varying pHs, at room temperature and using a CuSO4 concentration of 10 μM. The pH was varied in the range of pH3-9 using Carmody buffers. Enzyme loading was applied resulting in A400 absorbance values in the range of 0.1-1. Protein concentration was determined using the BCA method.
Optimal copper concentrations for the PPOs were determined at the optimal pH by varying the concentration of CuSO4 in the range of 1-1000 μM. In these experiments the pH was controlled using 50 mM Bis-Tris buffer pH 7.0.
Temperature optima were determined by measuring A400 absorbance after 1 h incubation at temperatures in the range of 20 to 70° C. In these experiments the pH was controlled using 50 mM Bis-Tris buffer pH 7.0. Copper concentrations of (20 or 50 μM) were used to prevent chemical oxidation as background activity at higher copper concentrations.

Data set [3] is described as follows: Conversion of syringic acid, sinapic acid and syringol by crude PPOs, absorbance at 400 nm. It is filed as biochemical. To be noted: 4 mM substrate, crude PPO 8.2 μg/mL, pH 6.0 or 7.0, 50 μM CuSO4, room temperature, 2, 22 and 118 h. How it is done: Syringic acid, sinapic acid and syringol (4 mM) were incubated with crude PPO2, 4, 6 and 7 from Example 5 in 100 mM BisTris buffer pH 6.0 or 7.0 with 50 μM CuSO4. Crude PPOs were dosed on target protein with a final concentration of 8.2 μg/mL. Substrate blanks prepared without the addition of enzyme and enzyme blanks without the addition of substrate were included. Incubations were performed in microtiterplates with a total reaction volume of 150 μL at room temperature for approximately 120 h. After 2, 22 and 118 h absorbance at 400 nm was measured.

A short description of data set [4]: Methanol formation by GC, lignin. It counts as biochemical. The note with it: enzyme 0.5 g/L, 25° C., approx. 48 h. How it is done: as §1
For data set [5], the target named is T1, RAC incubated with LPMO9B (Thermothelomyces thermophilus, UniProt G2QCJ3).
T1 construct: made in house; host or cells: Myceliophthora thermophila C1 strain W1L#100.1Δpyr5ΔAlp1
T1 sequence (G2QCJ3 19-323): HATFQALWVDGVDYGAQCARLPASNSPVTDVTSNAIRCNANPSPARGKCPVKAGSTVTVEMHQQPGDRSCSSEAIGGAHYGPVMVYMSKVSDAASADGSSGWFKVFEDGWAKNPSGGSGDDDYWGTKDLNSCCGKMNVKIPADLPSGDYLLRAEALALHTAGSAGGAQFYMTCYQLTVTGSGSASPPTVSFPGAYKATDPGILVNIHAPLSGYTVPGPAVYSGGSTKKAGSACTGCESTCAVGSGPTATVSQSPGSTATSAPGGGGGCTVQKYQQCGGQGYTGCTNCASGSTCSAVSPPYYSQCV
As to the kind of experiment: RAC hydrolysis assay with LPMO9B and PPO2, PPO7 or AbTyr in the presence of sinapic acid or syringic acid. It is filed as biochemical, Myceliophthora thermophila. The note with it: LPMO9B 5 μg/ml alone = 100%, or with added enzyme, pH 5.0, 50° C., 24 h. The procedure:
Reducing agents sinapic acid and syringic acid were obtained from Sigma-Aldrich (St. Louis, Mo., USA). RAC was prepared from Avicel by swelling it in phosphoric acid, (Zhang Y H P, Cui J, Lynd L R, & Kuang L R (2006) A transition from cellulose swelling to cellulose dissolution by o-phosphoric acid: Evidence from enzymatic hydrolysis and supramolecular structure. Biomacromolecules 7(2):644-648.). RAC was dissolved in 50 mM phospate buffer (pH 5.0) to a final concentration of 1.5 mg/ml. Copper chloride was added to a final concentration of 2.5 μM and dimethoxy containg reducing agent sinapic acid or syringic acid to a final concentration of 2 mM. LPMO9B (5 μg/ml) with or without PPO2 (5 μg/ml), PPO7 (5 μg/ml) or AbTyr (7.5 U/ml) were added and incubated for 24 h at 50° C. in a head-over-tail rotator in portions of 1 mL total volume (Stuart® rotator, Bibby Scientific LTD, Stone, UK) at 20 rpm. Products were analysed by HPAEC and MALDI-TOF MS as described previously. (Frommhagen M, Sforza S, Westphal A H, Visser J, Hinz S W, Koetsier M J et al. Discovery of the combined oxidative cleavage of plant xylan and cellulose by a new fungal polysaccharide monooxygenase. Biotechnology for Biofuels. 2015; 8:101. doi:10.1186/s13068-015-0284-1). The Activity denoted as “Activity*” represents total release of non-oxidized and C1-oxidized gluco-oligosaccharides from RAC incubated with LPMO9B in the presence of sinapic or syringic acid as a reducing agent and with addition of either AbTyr, PPO7 or PPO2. […] Standard deviations were less than 2%.

B1: PPO7: Myceliophthora thermophila C1 polyphenoloxidase with demethylating activity, mature form SEQ ID NO: 45 (protein, listed as Myceliophthora thermophila)
chain: NPMHKRWKPNAPRNPDFPLDEVDKLEESIMPNVEAWMSKRPAKYSNCTLENAGIRREWSDLSVDERKEYISAVLCLQSKPSKIPEGEVPGALSRFDDFVATHMTMAGQLHSPTNLFAAHRYFIHAYEKALREECGYKGYQPYMNYDRYADDPLNTPLFDGSDSSMSGNGGPYNYSGIPQPFPKPYNLIPPAGGGGCVTEGPFRDMVVSLGPKGGLFHDIPRNPRADGLGSNPRCLRRDVNKYSARGARANYTYSAIMDNPDIDSFYNRYMGMPQLKGDPYPWGLHSSGHYLIGGDPGGDFYCSPGDPLFYFHHGMLDRVWWIWQMQDPENRVQAVPGTNTMPMPPLMAANLESEAAATTTHKRAVNVSDLVVDLGWTAPPVKLVDLNEQLGGLGGELCYIYV
Take B1: the “Methanol concentration compared to the blank (in words)” value in data set [1] is “increased methanol concentration compared to the blank”. Besides, the pHopt in data set [2] (3-methoxycatechol oxidation, room temperature, 10 μM CuSO4, Carmody buffers pH3-9) was 7.0. In addition, the T range in data set [2] (>50% of maximum activity) is 20-55 °C. Moreover, the pH range in data set [2] (>50% of maximum activity) is given as 6.5-8.0. Besides, the “[CuSO4] range” value in data set [2] (>90% of maximum activity) is 100 to 1000 µM. The molecule further came in with a Topt in data set [2] (A400 after 1 h incubation, 20 to 70° C., 50 mM Bis-Tris pH 7.0, 20 or 50 μM copper) of 40 °C. The “[CuSO4]opt” value in data set [2] (at optimal pH, 50 mM Bis-Tris buffer pH 7.0, CuSO4 varied 1-1000 μM) was found to be 400 µM. The “Conversion of substrates (absorbance at 400 nm)” value in data set [3] is “able to convert syringic acid, sinapic acid and syringol”. Further, the methanol in data set [4] (Corn stover BioLignin 10 g/L, blank 0) came to 0.27 mM; in data set [4] (Wheat straw BioLignin 10 g/L, blank 0.10) it was 0.28 mM. In addition, the “Activity: total release of non-oxidized and C1-oxidized gluco-oligosaccharides from RAC” value in data set [5] (reducing agent sinapic acid 2 mM) is on record as 195%; in data set [5] (reducing agent syringic acid 2 mM) it was 142%.

Values taken from patent publication US20190002846A1, “POLYPEPTIDES HAVING DEMETHYLATING ACTIVITY” (Genencor International B.V., priority 2015, published 2019).
